Data published in patent publication US20180339057A1 (Novo Nordisk, published 2018).
Substitutions are numbered along the chain they refer to. Names may count otherwise.

T1: human MIC-1 receptor (hGFRAL, GDNF family receptor alpha like), full length (human, UniProt Q6UXV0 19-394)
T1 sequence (looked up): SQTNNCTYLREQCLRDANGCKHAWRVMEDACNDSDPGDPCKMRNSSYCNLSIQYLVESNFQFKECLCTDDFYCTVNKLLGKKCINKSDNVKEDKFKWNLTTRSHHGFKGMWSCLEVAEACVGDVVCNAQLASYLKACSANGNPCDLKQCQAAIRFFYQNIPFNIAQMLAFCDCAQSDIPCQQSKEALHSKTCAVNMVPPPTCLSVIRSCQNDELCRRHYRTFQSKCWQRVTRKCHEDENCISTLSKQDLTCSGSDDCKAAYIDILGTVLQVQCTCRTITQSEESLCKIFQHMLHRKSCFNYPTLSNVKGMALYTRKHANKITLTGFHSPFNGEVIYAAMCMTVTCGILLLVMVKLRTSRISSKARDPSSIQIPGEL

B1: (SEPATSGSETPG)2-MIC-1-Δ1-3(M86L) (ligand)
chain: SEPATSGSETPGSEPATSGSETPGGDHCPLGPGRCCRLHTVRASLEDLGWADWVLSPREVQVTMCIGACPSQFRAANMHAQIKTSLHRLKPDTVPAPCCVPASYNPLVLIQKTDTGVSLQTYDDLLAKDCHCI
B2: (SEPATSGSETPG)2-MIC-1-Δ1-3(M57L, M86L) (ligand)
chain: B1 chain with M78L
B3: SEPATSGSETPGTSESATPESGPGTSTEPSEG-MIC-1-Δ1-3 (ligand)
chain: SEPATSGSETPGTSESATPESGPGTSTEPSEGGDHCPLGPGRCCRLHTVRASLEDLGWADWVLSPREVQVTMCIGACPSQFRAANMHAQIKTSLHRLKPDTVPAPCCVPASYNPMVLIQKTDTGVSLQTYDDLLAKDCHCI
B4: A(GPEQGQEP)3-MIC-1-Δ1-3 (ligand)
chain: AGPEQGQEPGPEQGQEPGPEQGQEPGDHCPLGPGRCCRLHTVRASLEDLGWADWVLSPREVQVTMCIGACPSQFRAANMHAQIKTSLHRLKPDTVPAPCCVPASYNPMVLIQKTDTGVSLQTYDDLLAKDCHCI
B5: SEPATSGSETPGTSESATPESGPGTSTEPS-MIC-1-Δ1-3 (ligand)
chain: SEPATSGSETPGTSESATPESGPGTSTEPSGDHCPLGPGRCCRLHTVRASLEDLGWADWVLSPREVQVTMCIGACPSQFRAANMHAQIKTSLHRLKPDTVPAPCCVPASYNPMVLIQKTDTGVSLQTYDDLLAKDCHCI
B6: MIC-1(R2A,N3E,A81E) (ligand)
chain: AAEGDHCPLGPGRCCRLHTVRASLEDLGWADWVLSPREVQVTMCIGACPSQFRAANMHAQIKTSLHRLKPDTVPAPCCVPESYNPMVLIQKTDTGVSLQTYDDLLAKDCHCI

Each binder was assayed against T1, human MIC-1 receptor (hGFRAL, GDNF …) (assay: cell-based or functional assay).

Row | Emax (%) | pERK EC50 (nM) | Binder
1 | 100 | 0.4 | B1
2 | 100 | 0.4 | B2
3 | 100 | 0.4 | B3
4 | 100 | 0.8 | B4
5 | 100 | 0.4 | B5
6 | 100 | 0.3 | B6
